Laboratory results taken from FireProtDB (doi:10.1016/0022-2836(92)90564-z).
Values joined by “and” are separate entries in the source; they are usually repeats but may differ in a detail not shown here. Equal entries are not always repeated.

B1: Ribonuclease, P00648 (parent)
chain: MMKMEGIALKKRLSWISVCLLVLVSAAGMLFSTAAKTETSSHKAHTEAQVINTFDGVADYLQTYHKLPDNYITKSEAQALGWVASKGNLADVAPGKSIGGDIFSNREGKLPGKSGRTWREADINYTSGFRNSDRILYSSDWLIYKTTDHYQTFTKIR

Variants of: B1
Conditions: Bacillus amyloliquefaciens; pH 6.3; 25 °C; Urea; Fluorescence; MES 1.00 M; NaCl 613 mM; reversible: yes; structure 1BNI; whole UniProt chain shown

| Variant | ddG of mutation (higher = less stable) |
| --- | --- |
| V57T | 2.58 kcal/mol |
| V57A | 3.63 kcal/mol |
| V83A | 1.34 kcal/mol |
| N131A | 2.24 kcal/mol |
| E76G | 1.9 kcal/mol |
| D101A | 3.1 kcal/mol |
| D101N | 2.42 kcal/mol |
| T152V | 2.25 kcal/mol |
| S138A | 1.93 kcal/mol |
| N105A | 2.17 kcal/mol |
| N88D | 2.51 kcal/mol |
| L136V | 0.03 kcal/mol |
| L136T | 2.9 kcal/mol and 2.55 kcal/mol |
| I98V | 1.85 kcal/mol |
| I51A | 1.5 kcal/mol and 0.83 kcal/mol |
| I51V | 0.67 kcal/mol |

| Variant | ddG of mutation (higher = less stable) |
| --- | --- |
| N124A | 1.88 kcal/mol |
| I72V | 1.18 kcal/mol |
| I123V | 0.88 kcal/mol |
| I123A | 2.04 kcal/mol and 1.16 kcal/mol |
| V92T | 2.44 kcal/mol |
| V92A | 1.83 kcal/mol |
| I135A | 2.76 kcal/mol |
| I102T | 1 kcal/mol |
| I102A | 1.28 kcal/mol |
| I143A | 2.37 kcal/mol |
| K109R | 0.43 kcal/mol |
| N52A | 2.06 kcal/mol |
| I156V | 0.82 kcal/mol |
| I156A | 2.22 kcal/mol and 1.4 kcal/mol |
| S139A | 2.74 kcal/mol |
